{"source": "paper PMC4683182", "about": "“Global Regulator IscR Positively Contributes to Antimonite Resistance and Oxidation in Comamonas testosteroni S44”", "binders": {"B1": {"name": "Site A 30-bp (dsDNA)", "DNA 1": "CTGTTACCCGACAAAATTGATGGGGAATGT", "DNA 2": "ACATTCCCCATCAATTTTGTCGGGTAACAG"}, "B2": {"name": "Site A* 30-bp (dsDNA)", "DNA 1": "CTGTTACCCGACAAAGCTGGCGGGGAATGT", "DNA 2": "ACATTCCCCGCCAGCTTTGTCGGGTAACAG"}, "B3": {"name": "Site B 30-bp (dsDNA)", "DNA 1": "GATATACTCGCCTCAAACACTCAACAACAA", "DNA 2": "TTGTTGTTGAGTGTTTGAGGCGAGTATATC"}, "B4": {"name": "Site B* 30-bp (dsDNA)", "DNA 1": "B3 DNA 1 with A4G, T5C, A6G", "DNA 2": "B3 DNA 2 with T25C, A26G, T27C"}}, "note": "Changes are numbered by the printed parent chain."}
{"target": "T1, IscR (His-tagged) (Comamonas testosteroni S44, UniProt A0A0L7MDB4 1-178)", "T1 sequence": "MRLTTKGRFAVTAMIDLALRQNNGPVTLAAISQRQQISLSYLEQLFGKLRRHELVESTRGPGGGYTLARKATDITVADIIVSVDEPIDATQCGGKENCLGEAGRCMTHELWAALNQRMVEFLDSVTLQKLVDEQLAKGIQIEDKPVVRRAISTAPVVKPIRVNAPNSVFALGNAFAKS", "assay": "EMSA; 100 mM HEPES pH 7.6, 5 mM EDTA, 50 mM (NH4)2SO4, 5 mM DTT, 1% (w/v) Tween 20, 150 mM KCl; 30 min at 30 C; 20 uL; 6% native PAGE, ethidium bromide", "details": "protein: recombinant; tags: His-tag (pET-28a(+)); chain copies: 2"}
{"binder": "B1", "binding result": "binds"}
{"binder": "B2", "binding result": "no binding"}
{"binder": "B3", "binding result": "binds"}
{"binder": "B4", "binding result": "no binding"}
